Assay results from the DeepSol protein solubility set.

assay: soluble on expression in E. coli; label from the status in PepcDB or PDB records

Soluble on expression in E. coli, soluble:
MKYIDCAVIGAGPAGLNASLVLGRARKQIALFDNNTNRNRVTQNSHGFITRDGIKPEEFKEIGLNEVMKYPSVHYYEKTVVMITKQSTGLFEIVTKDHTKYLAERVLLATGMQEEFPSIPNVREYYGKSLFSCPYCDGWELKDQPLIIISENEDHTLHMTKLVYNWSTDLVIATNGNELSQTIMDELSNKNIPVITESIRTLQGEGGYLKKVEFHSGLRIERAGGFIVPTFFRPNQFIEQLGCELQSNGTFVIDDFGRTSEKNIYLAGETTTQGPSSLIIAASQGNKAAIAINSDITDERF
MMNDSFCRIIAGEIQARPEQVDAAVRLLDEGNTVPFIARYRKEITGGLDDTQLRNLETRLSYLRELEERRQAILKSISEQGKLTDDLAKAINATLSKTELEDLYLPYKPKRRTRGQIAIEAGLEPLADLLWSDPSHTPEVAAAQYVYADKGVADTKAALDGARYILMERFAEDAALLAKVRDYLWKNAHLVSTVVSGKEEEGAKFRDYFDHHEPLSTVPSHRALAMFRGRNEGVLQLSLNADPQFDEPPKESYCEQIIMDHLGLRLNNAPADSWRKGVVSWTWRIKVLMHLETELMGTVRERAEDEAINVFARNLHDLLMAAPAGLRATMGLDPGLRTGVKVAVVDATGKLVATDTIYPHTGQAAKAAMTVAALCEKHNVELVAIGNGTASRETERFYLDVQKQFPKVTAQKVIVSEAGASVYSASELAAQEFPDLDVSLRGAVSIARRLQDPLAELVKIDPKSIGVGQYQHDVSQTQLARKLDAVVEDCVNAVGVDLNTASVPLLTRVAGLTRMMAQNIVAWRDENGQFQNRQQLLKVSRLGPKAFEQCAGFLRINHGDNPLDASTVHPEAYPVVERILAATQQALKDLMGNSSELRNLKASDFTDEKFGVPTVTDIIKELEKPGRDPRPEFKTAQFADGVETMNDLQPGMILEGAVTNVTNFGAFVDIGVHQDGLVHISSLSNKFVEDPHTVVKAGDIVKVKVLEVDLQRKRIALTMRLDEQPGETNARRGGGNERPQNNRPAAKPRGREAQPAGNSAMMDALAAAMGKKR
MILIADSGSTKTDWCVVLNGAVIKRLGTKGINPFFQSEEEIQQKLTASLLPQLPEGKFNAVYFYGAGCTPEKAPVLRRAIADSLPVIGNIKANSDMLAAAHGLCGQKAGIACILGTGSNSCFYNGKEIVSNISPLGFILGDEGSGAVLGKLLVGDILKNQLPATLKEEFLKQFDLTPPEIIDRVYRQPFPNRFLASLSPFIAQHLEEPAIRQLVMNSFIAFFRRNVMQYDYKQYPVHFIGSIAYCYKEILQDAARQTGIQIGKILQSPMEGLIQYHSQLSFHPLEHHHHHH
MRYFKRRVGSGRVYMVMDNYSPHKTKGTLEVCCRKGIHPVFTPPYSPELNMAEAVFKSLKNYMSNKIFYTIEDVKNCIKQFFEENKYRFNLNAITYLGLDKIEV
MTDMDPSNMTGGPMNGHSAEKSSEEKKSPRSSRGVGEDLKNAGKDAMNTMENAGKNAWDKAGELGKSGINTVQSAGSAVKNGAKDLAGKVDKAL
MAHHHHHHASVGRFVQTADPAVTALESPPLPTETRLWRQSPDCQSESDSNRVSGSVLDSVKSNGGPKHASTARLHASQDLPTSVTRFLCLSSSSNSAAAKDLRRQLLVVRDCCVALGNKVKGSELLLLGGSQLSRKVEAMADFNSCLGVIFAASLTFTGETEGVAKDTLCSVVEMLKSAQESGDEKVFRAAVVKIVNRILLCTPLRPPARNAAKETARKSAGKQEQHAEQEPKLEDECLDFLTVEDGVPVLLECVWKRWLRYFEDGYVRYVKKLMAEERQALEAAAAAAAADDYNGEEAQYVDGVSATTTQTISTVPLFTTCQDYWKSPASAYAQFCYILLAIFFVRTKDFSLNYLARVTKLVQYFTYQLEFEDGEPIAVRTDTDAEEDSAQSEDEDDDRTPPQQEGPRKEKQVHSLPMPEYDKAVTQRRFRMSRRSSSQGLVPTVVSFKKAEKPRRHCHKCFFTDALPGDLRPSVEAVRQEEAEAAARDSEEHSHLPVVRRSANLDLSEHSISPQREREQLDACDASMESVQGV

Soluble on expression in E. coli, not soluble:
MAGRLREMRCELSFLKNADGSACFSQGATCIWASCSGPGDVHASKASDEAMTLDISYRANCGDNKFNVLNNIIHSTLSNAINLELFPHTTISVTVHGIQDDGSMGAVAINGACFALLDNGMPFETVFCGVLIVRVKDELIIDPTAKQEAASTGRVLFSVCKGSDGHPEVCAMDAIGHWDFIQLEAAWSLAQPSASAIFDFYKTVMKRKLSVDEQ
SPYIPLMEFSCSHSHLVCLPAEWRTSCMPSSKMKEMSSLFPEDWYQFVLRQLECYHSEEKASNVLEEIAKDKVLKDFYVHTVMTCYFSLFGIDNMAPSPGHILRVYGGVLPWSVALDWLTEKPELFQLALKAFRYTLKLMIDKASLGPIEDFRELIKYLEEYERDWYIGLVSDEKWKEAILQEKPYLFSLGYDSNMGIYTGRVLSLQELLIQVGKLNPEAVRGQWANLSWELLYATNDDEERYSIQAHPLLLRNLTVQAAEPPLGYPIYSSKPLHIHLY
MGSDKIHHHHHHMLFLMDFSMQTHAQTGDITPVVFDQFFQNYYLINPASSDSTGKIQVNIGNRSLIGLFDGVNRLYVDGNVRINHRTAMQYSRLGALVIAYNDGAFINRTRAYLRYSWSTSISERASISAGISAGMVKYTFLASQAGGGGSSTSFDGNAGLWYIRPKLKIGISYQQFTRSELTPVNQTFLLTPYINVNAVYASYLSAHVLLTTHVFYRYESGSVFDIQAAPVFLFNDLFEAGINLRYKRGVAILFGLKSIHVGTGNIRFMGSFMLSTRKLANTLDNAFELSAGYSF
MGSDKIHHHHHHMFTTQIHLKVLAMMLLCGLLNACSQTPQQCSSAIITTWSSAHSQITQDITTLSSTEFQGRKTDSEGARLTQAYLITRFTEMGLQPWQPNFAVPFSFQHQFSTVSGVNIIATIAAKTRSNRWRVITAHYDHLGQTANKMYPGADDNASGIAGMMAIAAQWQENPPLDDVNLMIVATDAEEPGLYGSYALVTLLQQYPLMDIELSVNLDMIGHPDRRRAIYMEGQKNLSNFESIKPLLMQQTQLCIRTHHTNLLSGRMKKSDWLRASDHYPFHKAGYSWVYFGVPPHAQYHTADDTIATLDIDFIVAVAETVYQMLSIDKLTKAP
MNSPDRFRLTSCDVTPDRTGMFTAIWTCYGRLAPGWRVVFGIESGTDRLEIEAVADAGVCAPLPDGVADAWLICNGLLIAVLTPELGARLTGGSGYLRFSSSPPHDAVSSTPAHVHRAGIPPRG
MSESGHRKGQAIIVQYSDSSSAYYAYAEGIEDDIIISSRYCPSNEDLLGKWIHLAIDDRSYACDTIQVIDDVFETKVFRGQVEVKINIQFDGRTARGMGMFYNDYFGYICDPNNVLHNTRDGANHNNVWVVRRNAEGLNSRWKVSSEQDDIQHIFPRPENVDKLETVVGVITTHAKLGDFYLVWSPSRPRSTICIAYKFCPSKSNLLGTWAEMRVNRSQRVQRPISVIDALYETRTIFGMTEFRIDFQQTRRFNPDYHLFYHEYFGGILDTLCIIDDVKEGGWYNGWIVYSQHSDASTYWRLAMKQTVLGPYNSPYSCLSPLQQDNNFNEPRNMDPNPPYRTRDRSRSMDRSTRHATRRVDEFTHKRRSPSPEVINVYKEPSRSHANELYDSQKNQYTSHEGHSTSSPTAENRQCHRSRSPEQSNFRPSQTVPGLSSMEQRKAHENVDWGPHRTKNVPPIRSATETPETDHRQDDQSVASTSALYLLDSPGPDPSPKLHLTSEEKELKKLKTKLSRICKLSLSFTANDSVSTPMQLHSLEEYEELIKLTNKFQ
MKIINLQFPNKYSAKKKEFVLAMGYFDGLHLGHRAVIQQAKRIADKQHLKLALLTYSQSPAGFYVNDPVLKVPILPFRQKMQMLEKLGVDTIFLIDYNLTFGSQSPEDYVDNYLAKLGASVVVAGFDHTYGSLKDKADMKHLPRYANGRFEVYTVRECSDYFGKISSTRIRRLLSEGDLQAVNELLGYQFQTVGFVVHGNQIGRRIGFPTANQALEEKQLLPKSGVYAVRTKIVTGPLAGRSFNGMASIGRNETFGSDNPITIEINLFDFSADVYDEEIIVYWISFLREQVKYANAEALIDQLKQDRIDSLDLLKEIPKSKNYS
MKKLLLPLVLAGVLLATLLVSQSSSSPSLRVAYVDVEKATESYYKWQDLNEKYKRDYSFYQNKLKEMEDELKKMQEEGRSQEEIQAKQKEILSKKAEYENLLKTEYQQKIQEVMKEVVSKIQEYASVMGYDLVIAKQMVLYGKPSYDITDQVIAYINQK
